Laboratory results: patent US7488573B2, “In vivo angiogenesis assay” (Children's Hospital Medical Center, priority 2002, dated 2009)

Tested on: PM vascular system
Assay: In vivo pupillary membrane (PM) angiogenesis assay in rat pups, transcorneal injection
Design: species or system Sprague-Dawley rat
Conditions: after 24 hours
Experimental: A Sprague-Dawley rat pup, available from Taconic Farms (German Town, N.Y.), aged postconception (p.c.) day 30.5 to p.c. 34.5, was subdued with metaphane and subsequently anaesthetized with an intramuscular injection of ketamine and xylazine at 1.6 mg/g and […] respectively. The depth of anesthesia was monitored by paw pinch response and where necessary, the subject pup was maintained under anesthesia with additional doses of ketamine and xylazine intraperitoneally. The right eyelid of the rat pup was parted at the suture using a microdissecting vanna (Storz, St Louis), the eyeball gently raised, and the eyelids folded underneath to permit illumination of the eye with optic fibre light guides. The local anesthetic tetracaine hydrochloride (0.5%) was applied to the eyeball prior to parting of the eyelids. The rat pup was then placed in a silastic body mold designed to reduce movement, and kept warm with an overlaid heating element from a battery powered boot warmer (L. L. Bean, Maine). The liquid phase for the water immersion microscope objective was provided by addition of a bead of phosphate-buffered saline between the eyeball and the objective. Capillaries of the pupillary membrane were readily detected by searching through the focal axis. An eye holder as shown in FIG. 1 held the eyeball to limit movement, and to illuminate the interior of the eye.
A 5× air objective of a Zeiss Axiophot microscope (Zeiss, Thornwood, N.Y.) was positioned above the cornea of an anaesthetized rat. A beveled glass needle mounted on a micromanipulator was axially apposed to the eye holder and in this position could penetrate the cornea for delivery of the test substance directly onto the pupillary membrane.
A defined volume of a test substance was delivered to the anterior chamber using a Nanoject Variable injector (Drummond, Pa.).
After the predetermined period of angiogenic progress, the rat pup was humanely sacrificed. The treated PM was prepared as a whole mount specimen by dissecting the retina, sclera, choroid and cornea away from the lens, iris diaphragm, hyaloid vessels and pupillary membrane. The latter tissue group was then fixed overnight in 2% glutaraldehyde in 0.1 M cacodylate pH 7.4, 0.1 M sucrose. After fixation, the tissue was washed in buffer alone and dehydrated in an ethanol series (50%, 70%, 80%, 90%, 95% and 100%). The specimens where then treated for 1 hour in hexamethyldisilazane (Polysciences Inc. Pennsylvania) and then air dried overnight. After drying, they were mounted and sputter coated with approximately 100 angstroms of gold-palladium. Specimens were visualized using a JOEL SEM 840 scanning electron microscope.
The angiogenic effect on the cellular/vascular PM system was observed and recorded with imaging and recording means. […]

B1: Ang2: biotinylated recombinant human Ang2, available from Calbiochem (protein, UniProt O15123 19-496, looked up)
Angiopoietin-2: YNNFRKSMDSIGKKQYQVQHGSCSYTFLLPEMDNCRSSSSPYVSNAVQRDAPLEYDDSVQRLQVLENIMENNTQWLMKLENYIQDNMKKEMVEIQQNAVQNQTAVMIEIGTNLLNQTAEQTRKLTDVEAQVLNQTTRLELQLLEHSLSTNKLEKQILDQTSEINKLQDKNSFLEKKVLAMEDKHIIQLQSIKEEKDQLQVLVSKQNSIIEELEKKIVTATVNNSVLQKQQHDLMETVNNLLTMMSTSNSAKDPTVAKEEQISFRDCAEVFKSGHTTNGIYTLTFPNSTEEIKAYCDMEAGGGGWTIIQRREDGSVDFQRTWKEYKVGFGNPSGEYWLGNEFVSQLTNQQRYVLKIHLKDWEGNEAYSLYEHFYLSSEELNYRIHLKGLTGTAGKISSISQPGNDFSTKDGDNDKCICKCSQMLTGGWWFDACGPSNLNGMYYPQRQNTNKFNGIKWYYWKGSGYSLKATTMMIRPADF
modifications: biotin
notes: biotinylated recombinant human Ang2, available from Calbiochem
Rat pups A5, Ang2 10 nanograms/ml anterior chamber, compared to the control
  increase in the width of flattened vessels present in the whole mount preparations: 2.1 fold
Rat pups A5, Ang2 10 nanograms/ml anterior chamber, control showed no staining
  staining by HU177 antibody (collagen remodeling of the basal lamina of the PM): significant staining
Rat pups A5, injection into anterior chamber (VEGF 1 nanogram/ml; Ang2 10 nanograms/ml), compared to the control (un-injected eye)
  number of mitotic cells in the PM blood vessels: significant increase
Rat pups A5, injection into anterior chamber (VEGF 1 nanogram/ml; Ang2 10 nanograms/ml; anti-Tie2 50 nanograms/ml), compared to the control
  diameter of capillary vessels: dramatic increase
